Source: patent publication US20140295512A1, “Ketol-Acid Reductoisomerases With Improved Performance Properties” (CALIFORNIA INSTITUTE OF TECHNOLOGY, priority 2011, published 2014)
Where two headings read alike, the source gives them in different places.

How the values were obtained:
[1] = KARI assay of purified S. exigua KARI and variants with NADH (Examples 6-9); type: biochemical; conditions: for U/mg NADH (specific activity): cofactor NADH; for Km: read-out: Km for cofactor NADH; for Ratio NADH/NADPH (U/mg): specific activity ratio
Procedure: (§1) S. exigua KARI activity or activities of its variants were assayed kinetically by monitoring the decrease in NADPH or NADH concentration by measuring the change in absorbance at 340 nm. An assay buffer was prepared containing 100 mM potassium phosphate pH 7.0, 1 mM DTT, 2.5 mM (S)-2-acetolactate, and 10 mM MgCl2 (final concentrations in the 1-mL assay, accounting for dilution with enzyme and cofactor). Fifty μL purified enzyme and 930 μL of the assay buffer were placed into a 1-mL cuvette. The reaction was initiated by addition of 20 μL NADPH or NADH (200 μM final concentration) for a general activity assay. Michaelis-Menten constants of the cofactors were determined with varying concentrations of NADPH (200-12 μM final) or NADH (200-6 μM final).

[2] = KARI assay of purified S. exigua KARI and variants with NADPH (Examples 6-9); type: biochemical; conditions: for U/mg NADPH (specific activity): cofactor NADPH; for Km: read-out: Km for cofactor NADPH
Procedure: as §1

Molecule	NADH KM value, fold increased versus wild-type [1]	kcat NADH [1]	kcat/Km ratio NADH/NADPH (cofactor specificity) [1]	U/mg NADH (specific activity) [1]	Km [1]	Ratio NADH/NADPH (U/mg) [1]	kcat NADPH [2]	U/mg NADPH (specific activity) [2]	Km [2]	other results
Se1_KARI^1AA10: S. exigua KARI variant S61C, S63D, I95T (protein, UniProt D0WGK0 1-342, looked up, variant S61C S63D I95T) Ketol-acid reductoisomerase …: MSVKTKEKEMAVTILYEQDVDPKVIQGLKVGIIGYGSQGHAHALNLMDSGVDVRVGLREGCSDWKTAEEAGLKVTDMDTAAEEADVIMVLVPDETQPKVYQEHIAAHLKAGNTLAFAHGFNIHYGYIVPPEDVNVIMCAPKGPGHIVRRQFTEGSGVPDLACVQQDATGNAWDIVLSYCWGVGGARSGIIKATFAEETEEDLFGEQAVLCGGLVELVKAGFETLTEAGYPPELAYFECYHEMKMIVDLMYESGIHFMNYSISNTAEYGEYYAGPKVINEQSREAMKEILKRIQDGSFAQEFVDDCNNGHKRLLEQREAINTHPIETTGAQIRSMFSWIKKED	1.3 fold	0.8 s⁻¹	7.1	0.32 U/mg	62 µM	1.2	0.67 s⁻¹	0.27 U/mg	367 µM	kcat with NADH, fold increase versus wild-type [1]: 2 fold; U/mg NADH (specific activity) ([1]; listed as 1AA10): 0.8 U/mg; kcat/Km ratio NADH/NADPH (cofactor specificity) ([1]; listed as Se1_KARI^1AA10-his6): 7; NADPH KM value, fold increased versus wild-type/parent [2]: at least 367 fold; kcat with NADPH, fold decreased versus wild-type [2]: 1.2 fold; NADPH KM value, fold increased versus wild-type/parent ([2]; listed as Se1_KARI^1AA10-his6): > 367 fold
S631: Slackia KARI variant with residue S63 mutated (printed S631, probably S63I) (protein, UniProt D0WGK0 1-342, looked up, variant S63I) Ketol-acid reductoisomerase …: MSVKTKEKEMAVTILYEQDVDPKVIQGLKVGIIGYGSQGHAHALNLMDSGVDVRVGLREGSSIWKTAEEAGLKVTDMDTAAEEADVIMVLVPDEIQPKVYQEHIAAHLKAGNTLAFAHGFNIHYGYIVPPEDVNVIMCAPKGPGHIVRRQFTEGSGVPDLACVQQDATGNAWDIVLSYCWGVGGARSGIIKATFAEETEEDLFGEQAVLCGGLVELVKAGFETLTEAGYPPELAYFECYHEMKMIVDLMYESGIHFMNYSISNTAEYGEYYAGPKVINEQSREAMKEILKRIQDGSFAQEFVDDCNNGHKRLLEQREAINTHPIETTGAQIRSMFSWIKKED						4				
Se1_NKR^10C2-his6: S. exigua KARI variant R58P, S61C, S62A, S63D, I95T (protein, UniProt D0WGK0 1-342, looked up, variant R58P S61C S62A S63D I95T, His6 tag, S. exigua KARI variant R58P, S61C, S62A, S63D, I95T) Ketol-acid reductoisomerase …: MSVKTKEKEMAVTILYEQDVDPKVIQGLKVGIIGYGSQGHAHALNLMDSGVDVRVGLPEGCADWKTAEEAGLKVTDMDTAAEEADVIMVLVPDETQPKVYQEHIAAHLKAGNTLAFAHGFNIHYGYIVPPEDVNVIMCAPKGPGHIVRRQFTEGSGVPDLACVQQDATGNAWDIVLSYCWGVGGARSGIIKATFAEETEEDLFGEQAVLCGGLVELVKAGFETLTEAGYPPELAYFECYHEMKMIVDLMYESGIHFMNYSISNTAEYGEYYAGPKVINEQSREAMKEILKRIQDGSFAQEFVDDCNNGHKRLLEQREAINTHPIETTGAQIRSMFSWIKKED		0.27 s⁻¹	14	0.11 U/mg	250 µM	3.4	0.08 s⁻¹	0.032 U/mg	> 1000 µM	NADPH-dependent activity (in words) [2]: virtually abolished
S63E: Slackia KARI variant with residue S63 mutated to E (protein, UniProt D0WGK0 1-342, looked up, variant S63E) Ketol-acid reductoisomerase …: MSVKTKEKEMAVTILYEQDVDPKVIQGLKVGIIGYGSQGHAHALNLMDSGVDVRVGLREGSSEWKTAEEAGLKVTDMDTAAEEADVIMVLVPDEIQPKVYQEHIAAHLKAGNTLAFAHGFNIHYGYIVPPEDVNVIMCAPKGPGHIVRRQFTEGSGVPDLACVQQDATGNAWDIVLSYCWGVGGARSGIIKATFAEETEEDLFGEQAVLCGGLVELVKAGFETLTEAGYPPELAYFECYHEMKMIVDLMYESGIHFMNYSISNTAEYGEYYAGPKVINEQSREAMKEILKRIQDGSFAQEFVDDCNNGHKRLLEQREAINTHPIETTGAQIRSMFSWIKKED						9				
S63M: Slackia KARI variant with residue S63 mutated to M (protein, UniProt D0WGK0 1-342, looked up, variant S63M) Ketol-acid reductoisomerase …: MSVKTKEKEMAVTILYEQDVDPKVIQGLKVGIIGYGSQGHAHALNLMDSGVDVRVGLREGSSMWKTAEEAGLKVTDMDTAAEEADVIMVLVPDEIQPKVYQEHIAAHLKAGNTLAFAHGFNIHYGYIVPPEDVNVIMCAPKGPGHIVRRQFTEGSGVPDLACVQQDATGNAWDIVLSYCWGVGGARSGIIKATFAEETEEDLFGEQAVLCGGLVELVKAGFETLTEAGYPPELAYFECYHEMKMIVDLMYESGIHFMNYSISNTAEYGEYYAGPKVINEQSREAMKEILKRIQDGSFAQEFVDDCNNGHKRLLEQREAINTHPIETTGAQIRSMFSWIKKED						4				
S63R: Slackia KARI variant with residue S63 mutated to R (protein, UniProt D0WGK0 1-342, looked up, variant S63R) Ketol-acid reductoisomerase …: MSVKTKEKEMAVTILYEQDVDPKVIQGLKVGIIGYGSQGHAHALNLMDSGVDVRVGLREGSSRWKTAEEAGLKVTDMDTAAEEADVIMVLVPDEIQPKVYQEHIAAHLKAGNTLAFAHGFNIHYGYIVPPEDVNVIMCAPKGPGHIVRRQFTEGSGVPDLACVQQDATGNAWDIVLSYCWGVGGARSGIIKATFAEETEEDLFGEQAVLCGGLVELVKAGFETLTEAGYPPELAYFECYHEMKMIVDLMYESGIHFMNYSISNTAEYGEYYAGPKVINEQSREAMKEILKRIQDGSFAQEFVDDCNNGHKRLLEQREAINTHPIETTGAQIRSMFSWIKKED						3.7				
Se1_NKR^2E8-his6: S. exigua KARI variant R58P, S61C, S62P, S63D, I95T (protein, UniProt D0WGK0 1-342, looked up, variant R58P S61C S62P S63D I95T, His6 tag, S. exigua KARI variant R58P, S61C, S62P, S63D, I95T) Ketol-acid reductoisomerase …: MSVKTKEKEMAVTILYEQDVDPKVIQGLKVGIIGYGSQGHAHALNLMDSGVDVRVGLPEGCPDWKTAEEAGLKVTDMDTAAEEADVIMVLVPDETQPKVYQEHIAAHLKAGNTLAFAHGFNIHYGYIVPPEDVNVIMCAPKGPGHIVRRQFTEGSGVPDLACVQQDATGNAWDIVLSYCWGVGGARSGIIKATFAEETEEDLFGEQAVLCGGLVELVKAGFETLTEAGYPPELAYFECYHEMKMIVDLMYESGIHFMNYSISNTAEYGEYYAGPKVINEQSREAMKEILKRIQDGSFAQEFVDDCNNGHKRLLEQREAINTHPIETTGAQIRSMFSWIKKED	2 fold	0.4 s⁻¹	46	0.16 U/mg	87 µM	3.6	0.1 s⁻¹	0.044 U/mg	> 1000 µM	NADPH-dependent activity (in words) [2]: virtually abolished
S63H: Slackia KARI variant with residue S63 mutated to H (protein, UniProt D0WGK0 1-342, looked up, variant S63H) Ketol-acid reductoisomerase …: MSVKTKEKEMAVTILYEQDVDPKVIQGLKVGIIGYGSQGHAHALNLMDSGVDVRVGLREGSSHWKTAEEAGLKVTDMDTAAEEADVIMVLVPDEIQPKVYQEHIAAHLKAGNTLAFAHGFNIHYGYIVPPEDVNVIMCAPKGPGHIVRRQFTEGSGVPDLACVQQDATGNAWDIVLSYCWGVGGARSGIIKATFAEETEEDLFGEQAVLCGGLVELVKAGFETLTEAGYPPELAYFECYHEMKMIVDLMYESGIHFMNYSISNTAEYGEYYAGPKVINEQSREAMKEILKRIQDGSFAQEFVDDCNNGHKRLLEQREAINTHPIETTGAQIRSMFSWIKKED						4				
Se1_NKR^S61DS63D: S. exigua KARI double aspartic acid variant S61D, S63D (protein, UniProt D0WGK0 1-342, looked up, variant S61D S63D, His6 tag, S. exigua KARI double aspartic acid variant S61D, S63D) Ketol-acid reductoisomerase …: MSVKTKEKEMAVTILYEQDVDPKVIQGLKVGIIGYGSQGHAHALNLMDSGVDVRVGLREGDSDWKTAEEAGLKVTDMDTAAEEADVIMVLVPDEIQPKVYQEHIAAHLKAGNTLAFAHGFNIHYGYIVPPEDVNVIMCAPKGPGHIVRRQFTEGSGVPDLACVQQDATGNAWDIVLSYCWGVGGARSGIIKATFAEETEEDLFGEQAVLCGGLVELVKAGFETLTEAGYPPELAYFECYHEMKMIVDLMYESGIHFMNYSISNTAEYGEYYAGPKVINEQSREAMKEILKRIQDGSFAQEFVDDCNNGHKRLLEQREAINTHPIETTGAQIRSMFSWIKKED	2.5 fold	1 ± 0.13 s⁻¹	78	0.4 ± 0.05 U/mg	113 ± 4 µM	9.5	0.1 ± 0.01 s⁻¹	0.042 ± 0.005 U/mg	880 ± 500 µM	kcat in presence of NADH, fold higher than in presence of NADPH [1]: 10 fold; kcat NADH ([1]; listed as S61D/S63D): 1 s⁻¹; kcat NADH ([1]; listed as Se1_NKR^DD-his6): 1 s⁻¹; kcat/Km ratio NADH/NADPH (cofactor specificity) ([1]; listed as Se1_NKR^DD-his6): 76; NADPH KM value, fold increased versus wild-type/parent [2]: more than 800 fold; U/mg NADPH (specific activity) ([2]; listed as Se1_NKR^DD-his6): 0.04 ± 0.005 U/mg; kcat NADPH ([2]; listed as S61D/S63D): 0.1 s⁻¹; kcat NADPH ([2]; listed as Se1_NKR^DD-his6): 0.1 s⁻¹
